Assay results published in article PMC12305957.

What was measured:
[1] = target: T1, Abf1 (Saccharomyces cerevisiae) (UniProt P14164); test: EMSA; conditions: 11.87 mM HEPES-KOH pH 7.9, 3 mM Tris-Cl, 96.67 mM NaCl, 3.33 mM KCl, 5.3 mM MgCl2, 0.13 mM Mg acetate, 1.33 uM ZnCl2, 0.05% NP-40, 10% glycerol, 100 ug/mL BSA …
T1 sequence: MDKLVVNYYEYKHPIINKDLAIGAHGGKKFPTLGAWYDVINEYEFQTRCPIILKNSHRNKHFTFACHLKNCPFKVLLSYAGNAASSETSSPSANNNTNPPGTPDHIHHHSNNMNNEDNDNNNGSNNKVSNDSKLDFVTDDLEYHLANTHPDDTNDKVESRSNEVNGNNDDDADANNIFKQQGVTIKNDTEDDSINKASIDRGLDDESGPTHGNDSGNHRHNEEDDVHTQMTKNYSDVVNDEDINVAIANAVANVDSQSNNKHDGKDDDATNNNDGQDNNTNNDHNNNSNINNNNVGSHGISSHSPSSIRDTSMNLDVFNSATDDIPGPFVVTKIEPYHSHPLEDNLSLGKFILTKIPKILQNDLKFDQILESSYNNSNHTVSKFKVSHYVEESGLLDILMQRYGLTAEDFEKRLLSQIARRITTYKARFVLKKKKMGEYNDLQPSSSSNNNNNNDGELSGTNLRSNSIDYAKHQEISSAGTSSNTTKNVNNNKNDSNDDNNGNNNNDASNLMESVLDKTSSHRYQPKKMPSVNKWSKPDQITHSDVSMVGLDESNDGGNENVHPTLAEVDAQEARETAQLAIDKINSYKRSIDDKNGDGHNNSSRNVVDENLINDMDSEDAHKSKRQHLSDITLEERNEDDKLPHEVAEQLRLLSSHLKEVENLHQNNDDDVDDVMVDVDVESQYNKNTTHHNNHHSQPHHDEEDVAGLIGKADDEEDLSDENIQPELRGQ

[2] = target: T2, Reb1 (Saccharomyces cerevisiae) (UniProt P21538); test: EMSA; conditions: 11.87 mM HEPES-KOH pH 7.9, 3 mM Tris-Cl, 96.67 mM NaCl, 3.33 mM KCl, 5.3 mM MgCl2, 0.13 mM Mg acetate, 1.33 uM ZnCl2, 0.05% NP-40, 10% glycerol, 100 ug/mL BSA …
T2 sequence: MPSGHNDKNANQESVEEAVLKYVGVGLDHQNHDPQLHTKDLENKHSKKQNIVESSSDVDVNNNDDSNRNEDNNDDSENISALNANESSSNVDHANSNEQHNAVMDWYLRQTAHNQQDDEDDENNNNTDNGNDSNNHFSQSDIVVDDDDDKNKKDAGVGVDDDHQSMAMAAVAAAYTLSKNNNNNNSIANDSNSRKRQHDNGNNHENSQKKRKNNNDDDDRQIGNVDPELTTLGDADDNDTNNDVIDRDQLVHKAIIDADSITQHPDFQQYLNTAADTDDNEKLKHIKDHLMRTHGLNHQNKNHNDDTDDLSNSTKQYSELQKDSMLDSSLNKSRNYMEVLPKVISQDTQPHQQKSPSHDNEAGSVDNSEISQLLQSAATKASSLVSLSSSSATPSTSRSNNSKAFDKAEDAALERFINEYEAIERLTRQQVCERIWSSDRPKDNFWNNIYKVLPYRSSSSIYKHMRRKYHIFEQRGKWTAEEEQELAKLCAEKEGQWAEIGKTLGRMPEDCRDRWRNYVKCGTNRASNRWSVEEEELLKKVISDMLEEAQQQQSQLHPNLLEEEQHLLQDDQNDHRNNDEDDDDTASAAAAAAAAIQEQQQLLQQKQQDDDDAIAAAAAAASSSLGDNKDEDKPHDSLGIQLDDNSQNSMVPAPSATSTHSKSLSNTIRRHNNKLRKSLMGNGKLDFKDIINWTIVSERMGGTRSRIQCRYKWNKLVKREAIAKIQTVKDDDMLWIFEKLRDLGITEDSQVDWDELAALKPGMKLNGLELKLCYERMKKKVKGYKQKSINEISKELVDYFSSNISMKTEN

Sequence	Kd [1] [nM]	Kd [2] [nM]
ACAGGATGTATATATCTGACACGTGCCTGGAGACTAGGGAGTAATCCCCTTGGCGGTTAAAACGCGGGGGACAGCGCGTACGTGCGTTTAAGCGGTGCTAGAGCTGTCTACGACCAATTGAGCGGCCTCGGCACCGGGATTCTCCAGGGCGGCCGCTTATCGTATTGCATGATAGGGTGATGACCGCGGACCTGCAGGCATGCAAGCTTGAGTATTCTATAGTGTCA (double strand) [NC-80/T-G nucleosome]	2.49	–
ACAGGATGTATATATCTGACACGTGCCTGGAGACTAGGGAGTAATCCCCTTGGCGGTTAAAACGCGGGGGACAGCGCGTACGTGCGTTTAAGCGGTGCTAGAGCTGTCTACGACCAATTGAGCGGCCTCGGCACCGGGATTCTCCAGGGCGGCCGCTAATCGTATTGCATGATATGGTGATGACCGCGGACCTGCAGGCATGCAAGCTTGAGTATTCTATAGTGTCA (double strand) [NC-80/A-T nucleosome]	2.39	–
ACAGGATGTATATATCTGACACGTGCCTGGAGACTAGGGAGTAATCCCCTTGGCGGTTAAAACGCGGGGGACAGCGCGTACGTGCGTTTAAGCGGTGCTAGAGCTGTCTACGACCAATTGAGCGGCCTCGGCACCGGGATTCTCCAGGGCGGCCGCCCGGGTAACGCATCACCATGGTGATGACCGCGGACCTGCAGGCATGCAAGCTTGAGTATTCTATAGTGTCA (double strand) [NC-80/G-GG nucleosome]	–	1.06
ACAGGATGTATATATCTGACACGTGCCTGGAGACTAGGGAGTAATCCCCTTGGCGGTTAAAACGCGGGGGACAGCGCGTACGTGCGTTTAAGCGGTGCTAGAGCTGTCTACGACCAATTGAGCGGCCTCGGCACCGGGATTCTCCAGGGCGGCCGCTCGGGTAAAGCATCACCATGGTGATGACCGCGGACCTGCAGGCATGCAAGCTTGAGTATTCTATAGTGTCA (double strand) [NC-80/T-AG nucleosome]	–	5.94
ACAGGATGTATATATCTGACACGTGCCTGGAGACTAGGGAGTAATCCCCTTGGCGGTTAAAACGCGGGGGACAGCGCGTACGTGCGTTTAAGCGGTGCTAGAGCTGTCTACGACCAATTGAGCGGCCTCGGCACCGGGATTCTCCAGGGCGGCCGGCCGGGTAACGCATCACCATGGTGATGACCGCGGACCTGCAGGCATGCAAGCTTGAGTATTCTATAGTGTCA (double strand) [NC-80/G-GC nucleosome]	–	1.07
ACAGGATGTATATATCTGACACGTGCCTGGAGACTAGGGAGTAATCCCCTTGGCGGTTAAAACGCGGGGGACAGCGCGTACGTGCGTTTAAGCGGTGCTAGAGCTGTCTACGACCAATTGAGCGGCCTCGGCACCGGGATTCTCCAGGGCGGCCGCTTATCGTATTGCATGATATGGTGATGACCGCGGACCTGCAGGCATGCAAGCTTGAGTATTCTATAGTGTCA (double strand) [NC-80/T-T nucleosome]	2.52	–
ACAGGATGTATATATCTGACACGTGCCTGGAGACTAGGGAGTAATCCCCTTGGCGGTTAAAACGCGGGGGACAGCGCGTACGTGCGTTTAAGCGGTGCTAGAGCTGTCTACGACCAATTGAGCGGCCTCGGCACCGGGATTCTCCAGGGCGGCCGGACGGGTAACGCATCACCATGGTGATGACCGCGGACCTGCAGGCATGCAAGCTTGAGTATTCTATAGTGTCA (double strand) [NC-80/G-TC nucleosome]	–	1.11
ACAGGATGTATATATCTGACACGTGCCTGGAGACTAGGGAGTAATCCCCTTGGCGGTTAAAACGCGGGGGACAGCGCGTACGTGCGTTTAAGCGGTGCTAGAGCTGTCTACGACCAATTGAGCGGCCTCGGCACCGGGATTCTCCAGGGCGGCCGCTTATCGTATAAAGTGATAGGGTGATGACCGCGGACCTGCAGGCATGCAAGCTTGAGTATTCTATAGTGTCA (double strand) [NC-80/A3G nucleosome]	2.22	–
